Patent US20180185504A1 (Regeneron, published 2018)
Like-named read-outs stand apart in the source and are kept apart here.

Assays:
[1] = target: T1, human PRLR on cells (endogenous on T47D, T47D#11, MCF7); introduced in HEK293/hPRLR/STAT5-Luc, 293/hPRLR, … (human, UniProt P16471 25-622); test: imaging of alexa488 intensity on T47D cells
T1 construct: no tag is stated for these lines; also called prolactin receptor
T1 sequence: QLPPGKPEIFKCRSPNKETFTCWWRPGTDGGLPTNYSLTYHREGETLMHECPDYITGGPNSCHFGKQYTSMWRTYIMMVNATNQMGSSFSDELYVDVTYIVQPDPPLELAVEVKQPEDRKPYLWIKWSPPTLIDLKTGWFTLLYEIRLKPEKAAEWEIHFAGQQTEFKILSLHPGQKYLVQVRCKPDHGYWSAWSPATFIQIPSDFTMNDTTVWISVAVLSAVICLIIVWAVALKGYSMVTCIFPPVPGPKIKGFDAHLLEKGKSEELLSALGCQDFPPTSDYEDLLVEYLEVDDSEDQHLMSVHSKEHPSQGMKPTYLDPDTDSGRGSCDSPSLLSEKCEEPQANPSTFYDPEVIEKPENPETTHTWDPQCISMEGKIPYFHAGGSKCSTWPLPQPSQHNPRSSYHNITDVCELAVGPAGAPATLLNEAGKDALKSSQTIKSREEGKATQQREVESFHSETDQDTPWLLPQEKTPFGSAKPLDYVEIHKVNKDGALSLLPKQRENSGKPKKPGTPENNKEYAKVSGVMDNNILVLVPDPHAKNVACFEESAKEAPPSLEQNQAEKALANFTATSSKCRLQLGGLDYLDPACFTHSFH
Procedure: Briefly, 20,000 T47D cells were seeded in collagen coated 96 well plates. […] Cells were then incubated with alexa488 conjugated anti-hFc Fab secondary antibodies for 30 minutes on ice followed by two additional PBS washes. Antibodies were allowed to internalize for 1 h at 37° C. in internalization buffer (PBS+2% FBS) or remained at 4° C. Cells were fixed in 4% formaldehyde, nuclei were stained with DRAQ5 (Cell signaling), and images were acquired on the ImageXpress micro XL (Molecular Devices). Whole cell alexa488 intensity at 37° C. (Binding) and the alexa488 intensity in the intracellular vesicles at 37° C. (Internalization) were determined via Columbus image analysis software (PerkinElmer).

[2] = target: T2, monkey macaca fascicularis PRLR construct with an HA tag on HEK293/mfPRLR cells (macaca fascicularis, UniProt A0A2K5WXK1 25-619); test: FACS on HEK293/mfPRLR cells
T2 construct: stably transfected into HEK293
T2 sequence: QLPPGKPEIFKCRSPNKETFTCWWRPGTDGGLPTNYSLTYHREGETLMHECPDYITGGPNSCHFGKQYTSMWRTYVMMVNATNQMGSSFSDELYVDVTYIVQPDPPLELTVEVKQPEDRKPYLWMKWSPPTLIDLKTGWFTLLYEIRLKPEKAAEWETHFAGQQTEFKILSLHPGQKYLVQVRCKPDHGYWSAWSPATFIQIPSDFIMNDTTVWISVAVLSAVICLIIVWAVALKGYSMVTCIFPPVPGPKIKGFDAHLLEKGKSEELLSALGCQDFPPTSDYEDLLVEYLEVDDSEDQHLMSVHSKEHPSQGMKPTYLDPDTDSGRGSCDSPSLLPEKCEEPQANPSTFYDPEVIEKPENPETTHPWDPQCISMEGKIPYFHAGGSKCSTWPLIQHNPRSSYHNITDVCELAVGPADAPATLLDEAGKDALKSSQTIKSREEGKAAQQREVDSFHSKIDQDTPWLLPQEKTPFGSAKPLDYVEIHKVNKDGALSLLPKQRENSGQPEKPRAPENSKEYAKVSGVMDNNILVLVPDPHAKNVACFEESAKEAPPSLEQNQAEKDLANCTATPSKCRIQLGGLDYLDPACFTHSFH

[3] = target: T1, human PRLR on cells (endogenous on …); test: cell-based or functional assay
[4] = target: T1, human PRLR on cells (endogenous on …); test: cell-based or functional assay; remark: listed apart in the source
[5] = target: T3, hPRLR.mmh (soluble monomeric human PRLR) (human); test: SPR (Biacore), antibody capture, 37 C
T3 construct: soluble monomeric PRLR protein
T3 chain: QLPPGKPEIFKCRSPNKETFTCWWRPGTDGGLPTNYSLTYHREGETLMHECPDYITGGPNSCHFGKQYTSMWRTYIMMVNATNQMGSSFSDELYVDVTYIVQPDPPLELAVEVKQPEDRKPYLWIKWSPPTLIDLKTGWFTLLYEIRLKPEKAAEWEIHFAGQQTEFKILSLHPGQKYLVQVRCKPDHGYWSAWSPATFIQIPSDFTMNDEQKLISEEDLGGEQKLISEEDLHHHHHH
Procedure: (§1) Measurements were conducted on a T200 Biacore instrument. Kinetic association (kₐ) and dissociation (kd) rate constants were determined by processing and fitting the data to a 1:1 binding model using Scrubber 2.0 curve fitting software.

[6] = target: T4, mfPRLR.mmh (soluble monomeric macaca fascicularis PRLR) (macaca fascicularis); test: SPR (Biacore), antibody capture, 37 C
T4 construct: soluble monomeric PRLR protein; also called macaca fascicularis (mf) PRLR.mmh; monkey PRLR
T4 chain: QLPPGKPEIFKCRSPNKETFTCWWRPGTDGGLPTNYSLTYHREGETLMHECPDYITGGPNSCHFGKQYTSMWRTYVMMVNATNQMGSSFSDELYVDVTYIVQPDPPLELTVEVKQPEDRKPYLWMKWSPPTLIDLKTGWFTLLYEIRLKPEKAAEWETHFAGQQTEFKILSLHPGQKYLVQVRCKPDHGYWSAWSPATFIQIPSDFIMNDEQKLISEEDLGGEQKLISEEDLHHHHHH
Procedure: as §1

[7] = target: T5, hPRLR.mFc (soluble dimeric human PRLR) (human); test: SPR (Biacore), antibody capture, 37 C
T5 construct: dimeric PRLR construct
T5 chain: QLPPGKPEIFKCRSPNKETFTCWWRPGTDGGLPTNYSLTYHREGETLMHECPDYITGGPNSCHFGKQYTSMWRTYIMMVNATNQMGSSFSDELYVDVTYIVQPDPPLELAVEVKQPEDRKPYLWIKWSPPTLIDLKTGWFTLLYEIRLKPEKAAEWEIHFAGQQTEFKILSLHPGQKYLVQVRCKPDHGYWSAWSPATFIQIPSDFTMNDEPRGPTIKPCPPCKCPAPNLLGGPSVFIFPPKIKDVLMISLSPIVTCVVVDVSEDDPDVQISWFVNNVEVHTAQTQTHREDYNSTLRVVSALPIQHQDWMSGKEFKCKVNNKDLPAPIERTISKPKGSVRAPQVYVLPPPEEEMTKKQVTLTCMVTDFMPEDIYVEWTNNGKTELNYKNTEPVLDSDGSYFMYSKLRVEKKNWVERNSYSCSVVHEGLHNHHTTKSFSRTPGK
Procedure: as §1

[8] = target: T6, human PRLR construct with an HA tag on HEK293/hPRLR cells (human, UniProt P16471 25-622); test: FACS on HEK293/hPRLR cells
T6 sequence: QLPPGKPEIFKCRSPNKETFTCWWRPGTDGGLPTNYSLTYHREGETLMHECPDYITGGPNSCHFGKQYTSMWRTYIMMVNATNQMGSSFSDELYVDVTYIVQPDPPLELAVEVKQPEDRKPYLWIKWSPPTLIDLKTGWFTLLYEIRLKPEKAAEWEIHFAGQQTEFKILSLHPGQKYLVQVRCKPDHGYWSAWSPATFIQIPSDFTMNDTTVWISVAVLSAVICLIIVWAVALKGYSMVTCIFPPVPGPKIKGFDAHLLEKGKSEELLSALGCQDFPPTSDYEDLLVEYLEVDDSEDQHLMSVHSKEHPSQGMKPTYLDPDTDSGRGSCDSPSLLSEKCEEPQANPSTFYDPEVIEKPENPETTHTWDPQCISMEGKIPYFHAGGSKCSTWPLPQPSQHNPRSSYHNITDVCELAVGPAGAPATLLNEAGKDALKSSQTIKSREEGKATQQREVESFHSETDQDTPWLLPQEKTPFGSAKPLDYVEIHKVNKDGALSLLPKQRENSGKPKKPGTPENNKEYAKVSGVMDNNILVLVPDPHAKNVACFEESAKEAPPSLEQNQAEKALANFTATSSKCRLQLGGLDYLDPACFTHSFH

[9] = target: T1, human PRLR on cells (endogenous on …); test: FACS on T47D cells
[10] = target: T7, human prolactin receptor (PRLR) (human, UniProt P16471 25-622); test: cell-based or functional assay
T7 sequence: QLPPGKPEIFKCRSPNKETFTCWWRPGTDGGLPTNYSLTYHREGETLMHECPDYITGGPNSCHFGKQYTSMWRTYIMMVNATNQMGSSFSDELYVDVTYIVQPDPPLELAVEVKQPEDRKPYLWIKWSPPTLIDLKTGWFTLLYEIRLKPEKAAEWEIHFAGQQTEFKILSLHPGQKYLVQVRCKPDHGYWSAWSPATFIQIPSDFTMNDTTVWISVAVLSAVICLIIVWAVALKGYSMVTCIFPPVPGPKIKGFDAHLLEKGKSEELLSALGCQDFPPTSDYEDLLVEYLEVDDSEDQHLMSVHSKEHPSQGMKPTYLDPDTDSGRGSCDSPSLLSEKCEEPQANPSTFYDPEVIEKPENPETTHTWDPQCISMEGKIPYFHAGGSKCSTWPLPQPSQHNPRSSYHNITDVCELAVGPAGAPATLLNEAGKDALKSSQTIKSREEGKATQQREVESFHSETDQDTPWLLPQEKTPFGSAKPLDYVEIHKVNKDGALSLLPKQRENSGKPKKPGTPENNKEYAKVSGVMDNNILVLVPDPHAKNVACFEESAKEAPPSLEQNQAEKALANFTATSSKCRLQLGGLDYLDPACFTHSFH

[11] = target: T7, human prolactin receptor (PRLR); test: cell-based or functional assay; remark: listed apart in the source
[12] = target: T7, human prolactin receptor (PRLR); test: cell-based or functional assay; remark: listed apart in the source
[13] = target: T7, human prolactin receptor (PRLR); test: cell-based or functional assay; remark: listed apart in the source
[14] = target: T7, human prolactin receptor (PRLR); test: cell-based or functional assay; remark: listed apart in the source

Binder	% Kill, MCF7/ATCC cells [10] [%]	% Kill, MCF7/PRLR cells [10] [%]	IC50, cell viability, MCF7/ATCC cells [10] [nM]	IC50, cell viability, MCF7/PRLR cells [10] [nM]	% Kill, T47D cells [11] [%]	IC50, cell viability, T47D cells [11] [nM]	% Kill, PC3/PRLR cells [12] [%]	IC50, cell viability, PC3/PRLR cells [12] [nM]	% Kill, MCF7/PRLR cells [13] [%]	% Kill, MCF7 cells [13] [%]	% Kill, T47D cells [13] [%]	IC50, cell viability, MCF7/PRLR cells [13] [nM]	IC50, cell viability, MCF7 cells [13] [nM]	IC50, cell viability, T47D cells [13] [nM]	other results
H1H6801P (antibody, human IgG1, V domains shown, human IgG1 Fc (H1H)) VH: QVQLQQSGPGLVKPSQTLSLTCVISGDSVSSNTAWNWVRQSPSRGLEWLGRTYYRSKWYNDYAVSVKSRITINPDTSKNQFSLLMNSVTPEDTAVYYCARVVRGLNYFDYWGQGTLVTVSS VL: DIVMTQSPDSLAVSLGERATINCKSSQSVLYNSNNKNYLAWYQQKPGQPPKLLIYWSSSRESGVPDRFSGSGSGTDFTLTISGLQAEDVAIYYCQQYSTIPYTFGQGTKLEIK															% Total Binding relative to Control I [1]: 156%; FACS Cell Binding (Fold Above Background) [2]: 88 fold; IC50 of Blocking 5 nM PRL [M] (STAT5-Luc reporter, HEK293/hPRLR/STAT5-Luc cells) [3]: 1.4e-10 M; Percent Blocking at 100 nM Antibody (STAT5-Luc reporter) [3]: 100%; % Internalization relative to Control I (T47D cells, imaging) [4]: 149%; Kd [5]: 4.63 nM; T 1/2 [5]: 3 min; koff [5]: 0.00441 s⁻¹; kon [5]: 951000 M⁻¹ s⁻¹; Kd [6]: 10.8 nM; T 1/2 [6]: 1 min; koff [6]: 0.00771 s⁻¹; kon [6]: 711000 M⁻¹ s⁻¹; Kd [7]: 0.279 nM; T 1/2 [7]: 52 min; koff [7]: 0.000221 s⁻¹; kon [7]: 793000 M⁻¹ s⁻¹; FACS Cell Binding (Fold Above Background) [8]: 47 fold; FACS Cell Binding (Fold Above Background) [9]: 45 fold
H1H6975N-DM1 (antibody, human IgG1, V domains shown, DM1 conjugated through SMCC linker; attachment residues not stated) VH: EVHLVESGGGLVQPGGSLRLSCAASGFTFSSYEMNWVRQTPGKGLEWISHISSRSVIIYYADSVKGRFTISRDNAKNSLFLQMNSLRAEDTAVYFCAGITIFGIPEYWGQGTLVTVSS VL: EIVLTQSPATLSLSPGERATLSCRASQSVSSYFAWYQQKPGQAPRLLIYDASSRATGIPTRFSGSGSGTDFTLTISSLEPEDFAVYYCQQRSSWPITFGQGTRLEIK	70	80	200	0.2	100	2	68	2.7	87	73	80	0.49	150	6.9	
H1H6765P-DM1 (antibody, human IgG1, V domains shown, DM1 conjugated through SMCC linker; attachment residues not stated) VH: EVQLVESGGGVVRPGGSLRLSCVGSGFSFDDHGMNWVRQGPGKGLEWVSGFNWNGGSTNYAESVKGRFTISRDNARNSLFLQMNSLRAEDTALYYCVRGRSGWFNDAFDVWGPGTMVTVSS VL: EIVLTQSPGTLSLSPGERATLSCRASQTINSNYLAWYRQKPGQTPRLLIYGTSSRATGIPDRFSGSGSGTDFSLTISRLEPEDFAVFYCQQYAGLPTFGPGTKVDIK	70	90	150	0.3	90	1	70	0.57	84	68	78	0.18	150	1.63	% Kill, MCF7/ATCC cells [14]: 71%; % Kill, MCF7/PRLR cells [14]: 81%; % Kill, PC3/hPRLR cells [14]: 83%; IC50, cell viability, MCF7/ATCC cells [14]: 90 nM; IC50, cell viability, MCF7/PRLR cells [14]: 0.1 nM; IC50, cell viability, PC3/hPRLR cells [14]: 0.3 nM
